Results from the supplement of paper PMC12667976.
± gives the standard error.

B1: library; numbered along this chain (parent)
chain: MATDAALRRLLRLHRTEIAVAVDSAFPLLHALADHDVVPEDKFQETLHLKEKEGCPQAFHALLSWLLTQDSTAILDFWRVLFKDYNLERYGRLQPILDSFPKDVDLSQPRKGRKPPAVPKALVPPPRLPTKRKASEEARAAAPAALTPRGTASPGSQLKAKPPKKPESSAEQQRLPLGNGIQTMSASVQRAVAMSSGDVPGARGAVEGILIQQVFESGGSKKCIQVGGEFYTPSKFEDSGSGKNKARSSSGPKPLVRAKGAQGAAPGGGEARLGQQGSVPAPLALPSDPQLHQKNEDECAVCRDGGELICCDGCPRAFHLACLSPPLREIPSGTWRCSSCLQATVQEVQPRAEEPRPQEPPVETPLPPGLRSAGEEVRGPPGEPLAGMDTTLVYKHLPAPPSAAPLPGLDSSALHPLLCVGPEGQQNLAPGARCGVCGDGTDVLRCTHCAAAFHWRCHFPAGTSRPGTGLRCRSCSGDVTPAPVEGVLAPSPARLAPGPAKDDTASHEPALHRDDLESLLSEHTFDGILQWAIQSMARPAAPFPS

Variants of: B1
Assay: AIRE transcriptional activation functional score (insulin promoter-GFP; nonsense median 0, synonymous median 1) (normalised score); higher = higher AIRE activity (more reporter activation)
Settings: with insulin promoter-GFP reporter in HEK293
Description: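 Deep mutational scan of full-length human AIRE (codon-optimized cDNA, DT-POPCode NNN libraries over three regions) integrated at a Bxb1 landing pad in HEK293 cells carrying an insulin core promoter-GFP reporter at a Flp-In site. Cells were sorted for the top 10% GFP about 14 days after transfection. Variant frequency log-ratios (select vs non-select, TileSeq) were rescaled so that the nonsense median is 0 and the synonymous median is 1, then averaged over biological replicates.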

Row | Variant | AIRE transcriptional activation functional score
1 | I96T | -1.01 ± 0.37
2 | G333E | 0.832 ± 0.22
3 | L7D | -0.451 ± 0.08
4 | T46V | -0.0333 ± 0.38
5 | P542Y | 1.25 ± 0.043
6 | G274W | 1.46 ± 0.045
7 | L529T | 0.261 ± 0.35
8 | L529A | -0.089 ± 0.14
9 | G227K | 0.245 ± 0.1
10 | E307V | 1.2 ± 0.19
11 | R203P | 1.03 ± 0.2
12 | V214I | 0.735 ± 0.18
13 | V226Y | 0.994 ± 0.18
14 | D297Y | 0.771 ± 0.31
15 | C446D | -0.0826 ± 0.091
16 | C446K | 0.294 ± 0.11
17 | D238I | 1.27 ± 0.18
18 | D238V | 1.23 ± 0.14
19 | P509W | 0.591 ± 0.033
20 | G197V | 1.14 ± 0.14
21 | K50A | -0.833 ± 0.5
22 | L128Y | 1.41 ± 0.52
23 | L128S | 0.817 ± 0.16
24 | D41L | 0.547 ± 0.53

Row | Variant | AIRE transcriptional activation functional score
25 | P539L | -0.0017 ± 0.31
26 | P422T | 0.528 ± 0.38
27 | A144Q | 0.126 ± 0.22
28 | F318R | 1.47 ± 0.16
29 | E383Y | 1.27 ± 0.42
30 | E383K | 0.473 ± 0.18
31 | Q94C | -0.262 ± 0.46
32 | Q94M | 1.89 ± 0.18
33 | Q94D | 0.228 ± 0.32
34 | P282Q | 0.976 ± 0.13
35 | A300C | 1.39 ± 0.17
36 | A140L | 1.13 ± 0.7
37 | G204I | 0.113 ± 0.17
38 | G269H | 0.996 ± 0.23
39 | G269L | 1.36 ± 0.38
40 | A134Q | 1.1 ± 0.12
41 | L13G | -0.0939 ± 0.53
42 | D84L | -0.0937 ± 0.33
43 | R92S | 0.275 ± 0.63
44 | C419P | 1.24 ± 0.23
45 | N86S | 0.134 ± 0.59
46 | N86E | -0.323 ± 0.33
47 | R336V | 0.812 ± 0.47
48 | P416L | 0.688 ± 0.27

Row | Variant | AIRE transcriptional activation functional score
49 | P416V | 0.526 ± 0.12
50 | E40W | -0.133 ± 0.065
51 | T232Q | 1.38 ± 0.083
52 | L62A | -0.0777 ± 0.31
53 | R127M | 1.1 ± 0.049
54 | T480G | 1.11 ± 0.26
55 | Y90K | -0.475 ± 0.32
56 | P101N | 0.226 ± 0.17
57 | P101R | 0.861 ± 0.6
58 | S518R | 0.342 ± 0.031
59 | T334D | 0.352 ± 0.11
60 | A450T | 0.632 ± 0.29
61 | L370P | 1.08 ± 0.096
62 | S372V | 1.33 ± 0.1
63 | S372T | 0.951 ± 0.35
64 | K245D | 0.145 ± 0.075
65 | K245N | 0.375 ± 0.48
66 | T3W | 2.08 ± 0.48
67 | T3R | 1.18 ± 0.6
68 | P367L | 0.763 ± 0.36
69 | N179T | 1.79 ± 0.58
70 | L106E | 0.17 ± 0.11
71 | V38Q | -0.0109 ± 0.15
72 | G277H | 0.919 ± 0.44

Row | Variant | AIRE transcriptional activation functional score
73 | S156N | 1.39 ± 0.5
74 | A429R | 0.843 ± 0.2
75 | E137M | 2.33 ± 0.18
76 | H454Y | 0.205 ± 0.11
77 | D410S | 1.27 ± 0.16
78 | F26Q | -2.95 ± 0.98
79 | F26R | -0.107 ± 0.71
80 | E508A | 0.896 ± 0.45
81 | C311I | 0.604 ± 0.2
82 | W335L | 0.997 ± 0.24
83 | E270M | 1.2 ± 0.07
84 | A317D | 1.25 ± 0.057
85 | A317W | 1.53 ± 0.049
86 | A317H | 1.06 ± 0.29
87 | V192H | 0.776 ± 0.17
88 | C299Y | 0.416 ± 0.24
89 | C299Q | 0.508 ± 0.37
90 | C449P | 0.244 ± 0.13
91 | C449Y | 0.106 ± 0.096
92 | A246P | 1.05 ± 0.29
93 | E216R | -0.537 ± 0.11
94 | R433W | 1.4 ± 0.071
95 | R433V | 0.599 ± 0.19
96 | D98N | 0.841 ± 0.68

Row | Variant | AIRE transcriptional activation functional score
97 | V206Q | 0.0809 ± 0.14
98 | A25R | 0.337 ± 0.71
99 | A25I | 0.925 ± 0.46
100 | P109C | 0.656 ± 0.81
101 | Q173G | 0.757 ± 0.42
102 | Q173D | 0.988 ± 0.11
103 | S195D | 0.8 ± 0.11
104 | L520P | -0.00959 ± 0.27
105 | A21I | -0.0753 ± 0.15
106 | D389E | 0.728 ± 0.51
107 | G431P | 0.983 ± 0.25
108 | L283D | 1.01 ± 0.17
109 | L87R | 1.14 ± 0.33
110 | Q275N | 1.01 ± 0.25
111 | L29G | -0.175 ± 0.35
112 | Q225P | 0.572 ± 0.47
113 | Q225S | 0.993 ± 0.35
114 | Q225N | 0.762 ± 0.14
115 | G306Y | 0.924 ± 0.035
116 | K164F | 1.41 ± 0.2
117 | A284R | 1.12 ± 0.15
118 | Q262M | 0.443 ± 0.11
119 | Q262N | 1.13 ± 0.15
120 | Q262K | 0.987 ± 0.24

Row | Variant | AIRE transcriptional activation functional score
121 | A19L | 0.0523 ± 0.27
122 | A19I | -0.333 ± 0.57
123 | V487G | 0.931 ± 0.44
124 | K222S | 0.847 ± 0.17
125 | P280V | 1.2 ± 0.15
126 | E171F | 2.29 ± 0.26
127 | G178P | 0.532 ± 0.25
128 | H319Y | 0.961 ± 0.06
129 | F230A | 0.596 ± 0.17
130 | C340E | 1.49 ± 0.15
131 | C340H | 1.46 ± 0.078
132 | L495K | 0.745 ± 0.16
133 | L418Q | 1.28 ± 0.14
134 | E51N | -2.61 ± 0.17
135 | G527H | 0.494 ± 0.18
136 | V104T | 0.284 ± 0.14
137 | H507S | 0.954 ± 0.32
138 | T16G | 0.0399 ± 0.37
139 | T16I | -0.0145 ± 0.17
140 | A117M | 0.838 ± 0.066
141 | R257Q | 0.729 ± 0.17
142 | S332R | 1.04 ± 0.24
143 | A500V | 1.04 ± 0.16
144 | A500T | 1.12 ± 0.064

Row | Variant | AIRE transcriptional activation functional score
145 | A482T | 0.312 ± 0.16
146 | A482N | 1.2 ± 0.25
147 | P460T | 0.871 ± 0.4
148 | Q290G | 1.02 ± 0.32
149 | Q290S | 0.97 ± 0.17
150 | Q290N | 1.19 ± 0.22
151 | S234D | -0.22 ± 0.2
152 | E136W | 1 ± 0.072
153 | V123D | 1.11 ± 0.33
154 | P125A | 1.25 ± 0.44
155 | F215S | 0.474 ± 0.35
156 | F215G | 0.391 ± 0.16
157 | L323G | 1.16 ± 0.55
158 | I330K | 0.557 ± 0.054
159 | I330N | 0.89 ± 0.13
160 | K52L | 1.11 ± 0.4
161 | K52M | 2.46 ± 0.48
162 | P39H | 0.277 ± 0.43
163 | R174V | 0.506 ± 0.34
164 | L273Y | 1.28 ± 0.28
165 | L273N | 0.862 ± 0.052
166 | S107F | 0.789 ± 0.42
167 | S107N | 0.000996 ± 0.21
